B1: mB7-1 mIgG2a (Fc fusion, mouse, UniProt Q00609 38-246, looked up)
chain: VDEQLSKSVKDKVLLPCRYNSPHEDESEDRIYWQKHDKVVLSVIAGKLKVWPEYKNRTLYDNTTYSLIILGLVLSDRGTYSCVVQKKERGTYEVKHLALVKLSIKADFSTPNITESGNPSADTKRITCFASGGFPKPRFSWLENGRELPGINTTISQDPESELYTISSQLDFNTTRNHTIKCLIKYGDAHVSEDFTWEKPPEDPPDSKN
notes: mouse B7-1 (CD80); also called mB7-1 Ig-fusion; B7-1 Fc; source: small-scale purified recombinant protein

What was measured:
[1] = target: T1, mPD-L1 E163A mCherry (mouse, UniProt Q9EP73 19-290, E163A); experiment: flow cytometry on cells; HEK 293 cells expressing PD-L1 mCherry (WT or mutant) queried with protein A microbeads saturated with a 4:1 mixture of PD-1 or B7-1 Fc-fusion and FITC-Fc; no wash; normalised to wild type; conditions: one partner purified
T1 construct: mouse PD-L1; source: HEK 293, transfected, on cells; not shown: mCherry, C-terminal, kept

[2] = target: T2, mPD-L1 S142A mCherry (mouse, UniProt Q9EP73 19-290, S142A); experiment: as above; conditions: one partner purified
T2 construct: mouse PD-L1; source: HEK 293, transfected, on cells; not shown: mCherry, C-terminal, kept

[3] = target: T3, mPD-L1 Q214A mCherry (mouse, UniProt Q9EP73 19-290, Q214A); experiment: as above; conditions: one partner purified
T3 construct: mouse PD-L1; source: HEK 293, transfected, on cells; not shown: mCherry, C-terminal, kept

[4] = target: T4, mPD-L1 M188A mCherry (mouse, UniProt Q9EP73 19-290, M188A); experiment: as above; conditions: one partner purified
T4 construct: mouse PD-L1; source: HEK 293, transfected, on cells; not shown: mCherry, C-terminal, kept

[5] = target: T5, mPD-L1 E163R mCherry (mouse, UniProt Q9EP73 19-290, E163R); experiment: as above; conditions: one partner purified
T5 construct: mouse PD-L1; source: HEK 293, transfected, on cells; not shown: mCherry, C-terminal, kept

[6] = target: B1; experiment: bead-based flow cytometry competition; protein A beads saturated with mB7-1 mIgG2a; 20 nM mPD-L1 hIgG1 or mCD28 hIgG1 with increasing mIgG2a-fused competitor; anti-human Alexa 488; conditions: both partners purified

T5 sequence (Q9EP73 19-290 E163R): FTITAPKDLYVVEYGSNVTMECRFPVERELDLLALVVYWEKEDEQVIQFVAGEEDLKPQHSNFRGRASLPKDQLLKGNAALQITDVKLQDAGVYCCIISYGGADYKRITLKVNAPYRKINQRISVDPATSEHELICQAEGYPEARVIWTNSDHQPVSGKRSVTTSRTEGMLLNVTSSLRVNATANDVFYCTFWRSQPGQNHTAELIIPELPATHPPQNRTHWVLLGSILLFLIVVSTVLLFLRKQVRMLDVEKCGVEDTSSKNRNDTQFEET
T2 sequence (Q9EP73 19-290 S142A): as the sequence (Q9EP73 19-290 E163R) above, with S124A, R145E counted along it
T1 sequence (Q9EP73 19-290 E163A): as the sequence (Q9EP73 19-290 E163R) above, with R145A counted along it
T3 sequence (Q9EP73 19-290 Q214A): as the sequence (Q9EP73 19-290 E163R) above, with R145E, Q196A counted along it
T4 sequence (Q9EP73 19-290 M188A): as the sequence (Q9EP73 19-290 E163R) above, with R145E, M170A counted along it

| percent of wild-type binding [1] | percent of wild-type binding [2] | percent of wild-type binding [3] | percent of wild-type binding [4] | percent of wild-type binding [5] | binding result [6] | Binder |
| --- | --- | --- | --- | --- | --- | --- |
| ~50% | ~50% | ~50% | ~50% | ~50% |  | B1 |
|  |  |  |  |  | binds | mCD28 hIgG1 (Fc fusion, mouse, UniProt P31041 20-150, looked up, mouse CD28; also called soluble mCD28 hIgG1) NKILVKQSPLLVVDSNEVSLSCRYSYNLLAKEFRASLYKGVNSDVEVCVGNGNFTYQPQFRSNAEFNCDGDFDNETVTFRLWNLHVNHTDIYFCKIEFMYPPPYLDNERSNGTIIHIKEKHLCHTQSSPKL |
|  |  |  |  |  | binds | mCD28 mIgG2a (Fc fusion, mouse, UniProt P31041 20-150, looked up, mouse CD28) NKILVKQSPLLVVDSNEVSLSCRYSYNLLAKEFRASLYKGVNSDVEVCVGNGNFTYQPQFRSNAEFNCDGDFDNETVTFRLWNLHVNHTDIYFCKIEFMYPPPYLDNERSNGTIIHIKEKHLCHTQSSPKL |

Source: paper PMC7272049 (PLoS ONE, 2020)
